Substitutions are numbered along the chain they refer to.

To fix the notation:
T1: IFNAR1 (human, UniProt P17181 28-557)
T1 sequence (looked up): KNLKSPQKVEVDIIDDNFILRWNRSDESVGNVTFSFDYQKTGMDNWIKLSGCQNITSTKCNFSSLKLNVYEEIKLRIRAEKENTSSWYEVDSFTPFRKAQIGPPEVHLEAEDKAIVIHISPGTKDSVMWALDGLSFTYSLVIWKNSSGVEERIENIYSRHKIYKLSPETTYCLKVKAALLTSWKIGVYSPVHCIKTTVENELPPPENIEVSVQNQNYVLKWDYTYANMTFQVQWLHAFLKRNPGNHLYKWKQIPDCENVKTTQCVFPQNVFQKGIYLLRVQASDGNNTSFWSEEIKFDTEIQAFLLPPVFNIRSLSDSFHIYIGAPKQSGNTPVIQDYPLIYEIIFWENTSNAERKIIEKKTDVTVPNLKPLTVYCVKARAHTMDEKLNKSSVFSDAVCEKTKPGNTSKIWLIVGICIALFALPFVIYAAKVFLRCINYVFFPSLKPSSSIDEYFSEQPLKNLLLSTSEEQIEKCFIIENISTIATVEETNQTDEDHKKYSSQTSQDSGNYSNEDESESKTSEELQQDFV

T2: APRIL (Acro Biosystems, Cat: APL-H52D1) (UniProt O75888 115-250, limits assumed)
T2 construct: also called ARPIL
T2 sequence (looked up): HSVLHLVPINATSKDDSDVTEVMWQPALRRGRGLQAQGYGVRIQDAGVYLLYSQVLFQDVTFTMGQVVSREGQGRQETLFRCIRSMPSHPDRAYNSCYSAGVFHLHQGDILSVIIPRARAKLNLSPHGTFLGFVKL

B1: Anifrolumab (antibody, human IgG1, kappa, V domains shown)
VH: EVQLVQSGAEVKKPGESLKISCKGSGYIFTNYWIAWVRQMPGKGLESMGIIYPGDSDIRYSPSFQGQVTISADKSITTAYLQWSSLKASDTAMYYCARHDIEGFDYWGRGTLVTVSS
VL: EIVLTQSPGTLSLSPGERATLSCRASQSVSSSFFAWYQQKPGQAPRLLIYGASSRATGIPDRLSGSGSGTDFTLTITRLEPEDFAVYYCQQYDSSAITFGQGTRLEIKR
B2: TACI-9-1-Fc (Fc fusion)
chain: STSCRKEQGKFYDHLLRDCISCASICGQHPKQCAYFCENKLDKTHTCPPCPAPEAEGAPSVFLFPPKPKDTLMISRTPEVTCVVVDVSHEDPEVKFNWYVDGVEVHNAKTKPREEQYNSTYRVVSVLTVLHQDWLNGKEYKCKVSNKALPSSIEKTISKAKGQPREPQVYTLPPSRDELTKNQVSLTCLVKGFYPSDIAVEWESNGQPENNYKTTPPVLDSDGSFFLYSKLTVDKSRWQQGNVFSCSVMHEALHNHYTQKSLSLSPGK
B3: TACI-9-7-Fc (Fc fusion)
chain: B2 chain with T2R, D18A
B4: TACI-9-13-Fc (Fc fusion)
chain: B2 chain with F36Y
B5: TACI-9-3-Fc (Fc fusion)
chain: B2 chain with T2L, K6E
B6: TACI-9-14-Fc (Fc fusion)
chain: B2 chain with Y35A, F36Y
B7: TACI-9-15-Fc (Fc fusion)
chain: B2 chain with K6E, K10E, Y35A
B8: TACI-9-11-Fc (Fc fusion)
chain: B2 chain with T2L, R5S, K6E, K10E
B9: TACI-9-8-Fc (Fc fusion)
chain: B2 chain with T2L, Y35A
B10: TACI-9-9-Fc (Fc fusion)
chain: B2 chain with T2R, D18T, Y35R
B11: TACI-9-12-Fc (Fc fusion)
chain: B2 chain with Y35A
B12: TACI-9-6-Fc (Fc fusion)
chain: B2 chain with T2R, D18T
B13: TACI-9-2-Fc (Fc fusion)
chain: B2 chain with T2L, R5S
B14: TACI-9-5-Fc (Fc fusion)
chain: B2 chain with T2L, K10E
B15: TACI-9-10-Fc (Fc fusion)
chain: B2 chain with T2L, K6E, K10E
B16: TACI-9-4-Fc (Fc fusion)
chain: B2 chain with T2L, K6Q
B17: B613303 (other)
heavy: EVQLVQSGAEVKKPGESLKISCKGSGYIFTNYWIAWVRQMPGKGLESMGIIYPGDSDIRYSPSFQGQVTISADKSITTAYLQWSSLKASDTAMYYCARHDIEGFDYWGRGTLVTVSSASTKGPSVFPLAPSSKSTSGGTAALGCLVKDYFPEPVTVSWNSGALTSGVHTFPAVLQSSGLYSLSSVVTVPSSSLGTQTYICNVNHKPSNTKVDKRVEPKSCDKTHTCPPCPAPEFEGGPSVFLFPPKPKDTLMISRTPEVTCVVVDVSHEDPEVKFNWYVDGVEVHNAKTKPREEQYNSTYRVVSVLTVLHQDWLNGKEYKCKVSNKALPASIEKTISKAKGQPREPQVYTLPPSRDELTKNQVSLTCLVKGFYPSDIAVEWESNGQPENNYKTTPPVLDSDGSFFLYSKLTVDKSRWQQGNVFSCSVMHEALHNHYTQKSLSLSPGK
light: EIVLTQSPGTLSLSPGERATLSCRASQSVSSSFFAWYQQKPGQAPRLLIYGASSRATGIPDRLSGSGSGTDFTLTITRLEPEDFAVYYCQQYDSSAITFGQGTRLEIKRTVAAPSVFIFPPSDEQLKSGTASVVCLLNNFYPREAKVQWKVDNALQSGNSQESVTEQDSKDSTYSLSSTLTLSKADYEKHKVYACEVTHQGLSSPVTKSFNRGECGGGGSGGGGSSRVDQEERFPQGLWTGVAMRSCPEEQYWDPLLGTCMSCKTICNHQSQRTCAAFCRSLSCRKEQGKFYDHLLRDCISCASICGQHPKQCAYFCENKLRSPVNLPPELMLQMAGQCSQNEYFDSLLHACIPCQLRCSSNTPPLTCQRYCNASVTNSVKGTNA
notes: Fusion protein of anifrolumab and TACI-BCMA

T3 sequence (Q9Y275 134-285 limits assumed): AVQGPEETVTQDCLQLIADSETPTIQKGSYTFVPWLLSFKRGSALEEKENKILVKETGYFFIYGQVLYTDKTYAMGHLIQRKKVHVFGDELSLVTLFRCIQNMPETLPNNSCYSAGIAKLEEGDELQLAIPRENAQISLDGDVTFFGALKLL

The first assay has as its target T1, IFNAR1. In words: cell-based or functional assay.
For the molecule B1, the “IC50, inhibition of IFN-alpha-induced in vitro differentiation of B cells into plasma cells (CD27+ CD38+)” value was 12.7 nM.

Another assay has as its target T1, IFNAR1. In words: cell-based or functional assay. This is another data set of the same source.
As to B1, the “IC50 (nM), inhibition of the activity of type I interferons (IFN-beta, HEK-Blue IFN-alpha/beta reporter cells)” value worked out at 1.53 nM.

A further assay addresses T3, BAFF (Sino biological, 10056-HNCH) (UniProt Q9Y275 134-285, biotinylated in the blocking ELISA (site not stated)).
T3 construct: also called BLyS
In words: ELISA, BAFF coated at 1 ug/mL, anti-human IgG-HRP. The method, then: The BAFF binding activity of the TACI-Fc fusion proteins was assessed as follows: BAFF (Sino biological, 10056-HNCH) protein was diluted with a pH 7.4 PBS (BasalMedia, B320) buffer to 1 μg/mL, and the resulting dilution was added to a 96-well microplate (Corning, 3590) at 100 μL/well. The plate was incubated overnight at 4° C. After the liquid was discarded, 5% skim milk (BD, 232100), diluted with PBS, was added at 300 μL/well for blocking, and the plate was incubated at 37° C. for 2 h. After the blocking, the blocking solution was discarded, and the plate was washed 3 times with a PBST buffer (pH 7.4 PBS containing 0.10% tween-20). Serially diluted test antibody or fusion protein solutions were added at 100 μL/well, and the plate was incubated at 37° C. for 1 h. […] The plate was incubated at 37° C. for 1 h. After the plate was washed 3 times with PBST, the chromogenic substrate TMB (KPL, 5120-0077) was added at 100 μL/well. The plate was incubated at room temperature for 10-15 min, and 1 M H₂SO₄ was added at 50 μL/well to stop the reaction. The absorbance at 450 nm was measured using a microplate reader. Curves for the binding of the antibodies to the antigen were fitted using software, and EC₅₀ values were calculated.
The BAFF binding activity of the constructed TACI-Fc fusion proteins was assessed (see Example 2 for the experimental method), and the results are shown in Table 3: […]
In general terms: ELISA stands for enzyme-linked immunosorbent assay.
As for B2, the EC50 – broadly, the midpoint of the concentration-response curve – was found to be 0.382 nM.
Turning to B3, the EC50 came out at 0.727 nM.
B4 yielded an EC50 of 0.433 nM.
The same measure, in the same setting: the value for B5 was 0.265 nM; that for B6 was 0.223 nM; that for B7 was 0.0869 nM.
Regarding B8, the EC50 was determined as 0.195 nM.
The same measure, in the same setting: the value for B9 was 0.2 nM; that for B10 was 0.937 nM; that for B11 was 0.122 nM.
For the molecule B12, a half-maximal response (EC50) required 0.367 nM.
Take B13: a half-maximal effect (EC50) was put at 0.279 nM.
Same read-out and setting: as for B14, the figure is 0.146 nM.
The same measure, in the same setting: as for B15, the figure is 0.12 nM; as for B16, 0.469 nM.

The target in a further assay is T2, APRIL (Acro Biosystems, Cat: APL-H52D1). Briefly: ELISA, APRIL coated at 1 ug/mL, anti-human Fc-HRP, OD450. The method, then:
The capabilities of B613301, B613302, and B613303, which are fusion proteins of anifrolumab and TACI-BCMA, to bind to BAFF and APRIL were assessed by ELISA as follows: [0548] BAFF (PeproTech, Cat: 310-13) or ARPIL (Acro Biosystems, Cat: APL-H52D1) was diluted to 1 μg/mL with PBS, and a 96-well plate (Costar, Cat: 3590) was coated with the dilution overnight at 4° C. The plate was washed with PBST and blocked with Blocking Buffer (PBST containing 1% BSA) at 37° C. for 1 h. The plate was tapped. The test antibodies were diluted with Blocking Buffer. Incubation was performed at 37° C. for 1.5 h. The plate was washed with PBST. An HRP-mouse anti-human Fc antibody (GenScript, Cat: A01854-200) was diluted with Blocking Buffer. Incubation was performed at 37° C. for 40 min. The plate was washed with PBST. 100 μL of TMB substrate solution (Biopanda, Cat: TMB-S-003) was added, and color development was performed at 37° C. for 3 min. 100 μL of ELISA stop solution (Solarbio, Cat: C1058) was added. OD450 was measured.
On to B17, for which the EC50 was 0.151 nM and the Emax is 2.33.

The record behind these values is patent US20260056186A1 (JIANGSU HENGRUI PHARMACEUTICALS, published 2026).
